# Test results published in US20240368302A1 (NANOMAB TECHNOLOGY, published 2024).
# Residue numbers refer to the chain shown, from its start.
# T1: mouse TROP2-Fc antigen protein (mouse, UniProt Q8BGV3 25-270, limits assumed)
# T1 construct: not shown: Fc
# T1 sequence (looked up): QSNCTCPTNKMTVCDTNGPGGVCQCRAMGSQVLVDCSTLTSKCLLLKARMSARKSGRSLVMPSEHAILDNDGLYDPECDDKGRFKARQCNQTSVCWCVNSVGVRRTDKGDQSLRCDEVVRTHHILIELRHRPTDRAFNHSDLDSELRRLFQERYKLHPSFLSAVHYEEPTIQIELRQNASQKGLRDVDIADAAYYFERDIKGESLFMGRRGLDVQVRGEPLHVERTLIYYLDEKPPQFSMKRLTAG
# T2: Fc antigen protein of human TROP2 domain CPD (human, UniProt P09758 146-274, limits assumed)
# T2 construct: domain: CPD; not shown: Fc
# T2 sequence (looked up): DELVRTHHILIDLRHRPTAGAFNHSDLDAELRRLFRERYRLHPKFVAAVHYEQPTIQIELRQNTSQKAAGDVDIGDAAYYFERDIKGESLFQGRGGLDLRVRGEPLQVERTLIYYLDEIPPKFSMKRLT
# T3: Fc antigen protein of human TROP2 domains TY-1 + CPD (human, UniProt P09758 70-274, limits assumed)
# T3 construct: domain: TY-1 + CPD; not shown: Fc
# T3 sequence (looked up): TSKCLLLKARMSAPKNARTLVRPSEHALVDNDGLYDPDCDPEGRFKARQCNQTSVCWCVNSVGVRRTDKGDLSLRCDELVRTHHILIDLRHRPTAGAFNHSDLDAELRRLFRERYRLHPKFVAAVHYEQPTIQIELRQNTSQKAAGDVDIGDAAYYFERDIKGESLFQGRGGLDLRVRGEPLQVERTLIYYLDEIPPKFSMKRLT
# T4: human TROP2-Fc protein antigen (human, UniProt P09758 27-274)
# T4 construct: extracellular domain; also called CRD + TY-1 + CPD; not shown: IgG Fc of the pFUSE-IgG plasmid
# T4 sequence (looked up): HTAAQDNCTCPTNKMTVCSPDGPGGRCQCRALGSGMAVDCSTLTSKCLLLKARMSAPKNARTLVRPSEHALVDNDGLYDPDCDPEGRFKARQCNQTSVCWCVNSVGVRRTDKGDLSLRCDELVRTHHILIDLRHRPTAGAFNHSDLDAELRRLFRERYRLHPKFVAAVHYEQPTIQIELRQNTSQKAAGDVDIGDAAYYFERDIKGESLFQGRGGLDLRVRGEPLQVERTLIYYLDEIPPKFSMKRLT
# T5: rhesus monkey TROP2-Fc antigen protein (rhesus monkey, UniProt A0A5F8AGB8 27-274)
# T5 construct: not shown: Fc
# T5 sequence: T4 sequence (looked up) with M36V, S67N, I204V
# B1: MY1530-1-26 (VHH)
# VHH: QVQLQESGGGSVQAGGSLRLSCVVSGYTTTRYSMAWFRQAPGKEREGVAGIDTDVLTTYKPSVEGRFTISRDSAKRTLYLQMNSLKPEDTAMYYCATGTGNFLALDPVWYNTWGQGTQVTVSS
# notes: Expressed in E. coli WK6 from vector pMECS, purified on a nickel column; also called MY1530-1-26 VHH; anti-TROP2 single domain antibody
# B2: MY1530-1-20 (VHH)
# VHH: QVQLQESGGGSVLAGGSLRLSCTVSGSFVSSRSMAWFRQTPGKEREGVAAISQYGDPKYAGSVKGRFTMSRDNAKNTLLLQMNSLKPEDTAIYYCAAGEAWELATLSRSDYIYWGQGTQVTVSS
# notes: Expressed in E. coli WK6 from vector pMECS, purified on a nickel column; also called MY1530-1-20 VHH; anti-TROP2 single domain antibody
# B3: MY1530-2-53 (VHH)
# VHH: QVQLQESGGGSVQAGGSLRLSCAVSGLTSSTTCMGWFRQAPGKEREGVAVIRSSGETTAADSVKGRFTISRDNAKNTLSLQMTSLKPEDTAMYYCAAAWPYSGCLLPLSSGDFTYWGQGTQVTVSS
# notes: Expressed in E. coli WK6 from vector pMECS, purified on a nickel column; also called MY1530-2-53 VHH; anti-TROP2 single domain antibody
# B4: MY1530-6-1 (VHH)
# VHH: QVQLQESGGGSVQAGGSLRLSCAASGFPYSSYSMGWFRQAPGKEREGVAAIYTGGGSTYYAGSVKGRFTISQEHATNTLYLQMNSLKPEDTAMYYCAANMVDNGVISGIQALGVRYYNYWGQGTQVTVSS
# notes: Expressed in E. coli WK6 from vector pMECS, purified on a nickel column; also called MY1530-6-1 VHH; anti-TROP2 single domain antibody
# B5: MY1530-4-28 (VHH)
# VHH: QVQLQESGGGSVQAGGSLRLSCAASGFSVSTTWMHWVRQAPGKGLEWVSRIAINDHTFYAESVKGRFTMSTDNAKNTVYLQMTSLKPEDTAVYYCSPYSDYRIRGQGTQVTVSS
# notes: Expressed in E. coli WK6 from vector pMECS, purified on a nickel column; also called MY1530-4-28 VHH; anti-TROP2 single domain antibody
# B6: MY1530-5-17 (VHH)
# VHH: QVQLQESGGGSVQPGGSLRLSCVVSGYTVSSVCMAWFRQAPGMERELVAGFYHSGGTYYGDSVKGRFTASQDNAKNTLYLQMNSLKPEDTATYYCARARYPSSACGTSPSNYNIWGQGTQVTVSS
# notes: Expressed in E. coli WK6 from vector pMECS, purified on a nickel column; also called MY1530-5-17 VHH; anti-TROP2 single domain antibody
# B7: MY1530-5-54 (VHH)
# VHH: B6 VHH with V24A, V29A, M43K, F51Y
# notes: Expressed in E. coli WK6 from vector pMECS, purified on a nickel column; also called MY1530-5-54 VHH; anti-TROP2 single domain antibody
# B8: MY1530-4-22 (VHH)
# VHH: B6 VHH with P14A, R19K
# notes: Expressed in E. coli WK6 from vector pMECS, purified on a nickel column; also called MY1530-4-22 VHH; anti-TROP2 single domain antibody
# Molecular target: T1, mouse TROP2-Fc antigen protein
# Experiment: ELISA, plate coated with mouse TROP2-Fc
row,Binder,binding result
1,B1,no binding
2,B2,no binding
3,B3,no binding
4,B4,no binding
5,B5,no binding
6,B6,no binding
7,B7,no binding
8,B8,no binding

# Molecular target: T2, Fc antigen protein of human TROP2 …
# Experiment: ELISA, coated Fc protein of human TROP2 CPD, Kd calculated from absorbance
# Experimental: (§1) The ELISA plates were coated with Fc antigen proteins of different human TROP2 domains overnight at 4° C. The plates were washed for 4 times with PBS-T the next day, added with 1% BSA, and blocked at room temperature for 2 hours. The plates were washed for 4 times with PBS-T, added with the anti-TROP2 single domain antibodies diluted in gradient, and standing at 37° C. for 1 hour. The plates were washed for 4 times with PBS-T, added with mouse anti-His-HRP antibody, and standing at 37° C. for 1 hour. The plates were washed for 4 times with PBS-T, added with TMB soluble substrate, and standing at room temperature for 10 minutes. […] The anti-TROP2 single domain antibodies of the present invention bind to different TROP2 domains.
row,Binder,Kd [nM]
1,B6,0.53
2,B7,0.53
3,B8,1.02

# Molecular target: T3, Fc antigen protein of human TROP2 …
# Experiment: ELISA, coated Fc protein of human TROP2 TY-1 + CPD, Kd calculated from absorbance
# Experimental: as §1
row,Binder,Kd [nM]
1,B4,2.14
2,B6,0.53
3,B7,0.53
4,B8,0.53

# Molecular target: T4, human TROP2-Fc protein antigen
# Experiment: ELISA, coated human TROP2-Fc, Kd calculated from absorbance
row,Binder,Kd [nM]
1,B1,4.86
2,B2,1.13
3,B3,4.23
4,B4,1.51
5,B5,1.2
6,B6,1.39
7,B7,1.28
8,B8,1.29

# Molecular target: T4, human TROP2-Fc protein antigen
# Experiment: SPR (Biacore 8K), human TROP2-Fc on CM-5 chip, VHH in flow
# Experimental: The fixed phase human TROP2-Fc antigen proteins were fixed on the surface of CM-5 sensing chip using carboxyl amino reaction. The anti-TROP2 single domain antibodies were diluted with HBS buffer to different concentrations, and the anti-TROP2 single domain antibodies were added at a flow rate of 30 μl/min, binding for 90 seconds, dissociating for 600 seconds, and the binding process between the anti-TROP2 single domain antibody and the antigen was observed. After rinsing with 10 mM glycine solution for chip regeneration, the next anti TROP2 single domain antibody assay was proceeded.
Binder,Kd [nM],koff [s⁻¹],kon [M⁻¹ s⁻¹]
B1,1.89,0.00304,1.61e+06
B2,0.35,0.000179,509000
B3,9.83,0.00443,451000
B4,0.21,0.000227,1.09e+06
B5,4.89,0.000717,147000
B6,0.27,0.00011,405000
B7,0.2,8.99e-05,449000
B8,0.73,0.000187,257000

# Molecular target: T5, rhesus monkey TROP2-Fc antigen protein
# Experiment: ELISA, coated rhesus monkey TROP2-Fc, Kd calculated from absorbance
# Experimental: The ELISA plates were coated with TROP2-Fc antigen proteins from human, mouse, and rhesus monkey overnight at 4° C. The plates were washed for 4 times with PBS-T the next day, added with 1% BSA, and blocked at room temperature for 2 hours. The plates were washed for 4 times with PBS-T, added with the anti-TROP2 single domain antibodies diluted in gradient, and standing at 37° C. for 1 hour. The plates were washed for 4 times with PBS-T, added with mouse anti-His-HRP antibody, and standing at 37° C. for 1 hour. The plates were washed for 4 times with PBS-T, added with TMB soluble substrate, and standing at room temperature for 10 minutes.
row,Binder,Kd [nM]
1,B1,29.4
2,B2,2.33
3,B3,28.1
4,B4,4.47
5,B5,1.38
6,B6,1.78
7,B7,1.73
8,B8,1.67

# Molecular target: T4, human TROP2-Fc protein antigen
# Experiment: ELISA, coated Fc protein of human TROP2 CRD + TY-1 + CPD, Kd calculated from absorbance
# Experimental: as §1
row,Binder,Kd [nM]
1,B1,4.86
2,B2,1.13
3,B3,4.23
4,B4,1.51
5,B5,1.2
6,B6,1.39
7,B7,1.28
8,B8,1.29
